Values of other authors in paper PMC12564133.

Biological target: BKCa channel (UniProt Q12791)
UniProt Q12791, sequence (Q12791 whole entry): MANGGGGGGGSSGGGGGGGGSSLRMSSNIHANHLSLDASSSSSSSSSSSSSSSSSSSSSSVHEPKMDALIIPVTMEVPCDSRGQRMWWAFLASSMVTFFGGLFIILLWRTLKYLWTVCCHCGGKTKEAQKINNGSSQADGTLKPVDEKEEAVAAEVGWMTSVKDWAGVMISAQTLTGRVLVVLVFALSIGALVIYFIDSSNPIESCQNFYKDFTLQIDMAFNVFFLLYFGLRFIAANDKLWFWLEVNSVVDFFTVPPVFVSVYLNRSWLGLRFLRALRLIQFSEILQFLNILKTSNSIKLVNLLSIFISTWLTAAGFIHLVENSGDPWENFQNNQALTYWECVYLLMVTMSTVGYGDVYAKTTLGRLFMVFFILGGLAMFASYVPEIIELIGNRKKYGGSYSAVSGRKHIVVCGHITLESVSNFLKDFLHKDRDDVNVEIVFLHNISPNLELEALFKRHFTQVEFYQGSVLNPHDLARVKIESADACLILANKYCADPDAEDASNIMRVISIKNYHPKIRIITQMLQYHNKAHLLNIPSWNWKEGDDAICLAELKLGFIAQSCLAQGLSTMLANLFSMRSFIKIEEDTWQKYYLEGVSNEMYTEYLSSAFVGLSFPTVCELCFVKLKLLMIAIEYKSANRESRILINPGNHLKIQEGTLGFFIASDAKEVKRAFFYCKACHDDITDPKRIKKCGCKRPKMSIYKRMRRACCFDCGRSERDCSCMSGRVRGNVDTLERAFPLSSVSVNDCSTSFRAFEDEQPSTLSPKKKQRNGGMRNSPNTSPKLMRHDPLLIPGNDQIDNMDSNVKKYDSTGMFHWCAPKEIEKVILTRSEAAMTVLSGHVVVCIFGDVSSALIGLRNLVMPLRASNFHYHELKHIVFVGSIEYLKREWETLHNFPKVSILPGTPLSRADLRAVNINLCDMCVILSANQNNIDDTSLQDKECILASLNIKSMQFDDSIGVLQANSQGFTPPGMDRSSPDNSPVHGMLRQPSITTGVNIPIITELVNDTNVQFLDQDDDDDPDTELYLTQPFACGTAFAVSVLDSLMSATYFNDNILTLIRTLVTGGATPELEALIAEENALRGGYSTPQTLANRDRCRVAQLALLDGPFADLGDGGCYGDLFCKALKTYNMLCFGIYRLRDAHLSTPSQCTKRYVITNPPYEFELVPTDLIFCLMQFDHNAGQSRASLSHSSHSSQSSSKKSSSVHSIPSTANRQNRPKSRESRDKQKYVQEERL

Iberiotoxin (IbTX) (from UniProt P24663)
Kd: 1.16 nM
